Source: PMC10713844, “Characterization of the enzyme kinetics of EMP and HMP pathway in Corynebacterium glutamicum: reference for modeling metabolic networks” (Frontiers in Bioengineering and Biotechnology, 2023)

How the values were obtained:
Test in all cases: initial-rate kinetics, Michaelis-Menten fit
Format in all cases: biochemical, Corynebacterium glutamicum
Conditions in all cases: PBS with 0.5 mM MgCl2, pH 7.4, 37 °C
[1] = substrate: O=C(CO)COP(=O)(O)O
Text: initial-rate kinetics, Michaelis-Menten fit on TPI (triosephosphate isomerase)

[2] = substrate: O=C[C@H](O)COP(=O)(O)O
Text: initial-rate kinetics, Michaelis-Menten fit on GAPDH (glyceraldehyde 3-phosphate dehydrogenase)

[3] = substrate: O=C(O)[C@H](O)COP(=O)(O)O
Text: initial-rate kinetics, Michaelis-Menten fit on PGMA / PMGA / pgma (phosphoglycerate mutase)

[4] = substrate: O=C(O)[C@@H](CO)OP(=O)(O)O
Text: initial-rate kinetics, Michaelis-Menten fit on ENO (enolase; ENO-Y)

[5] = substrate: O=C(CO)[C@H](O)[C@H](O)COP(=O)(O)O
Text: initial-rate kinetics, Michaelis-Menten fit on RPI (ribose-5-phosphate isomerase)

[6] = substrate: O=C(CO)[C@H](O)[C@H](O)COP(=O)(O)O; remark: listed apart in the source
Text: initial-rate kinetics, Michaelis-Menten fit on RPE (ribulose-5-phosphate 3-epimerase)

[7] = substrate: O=C[C@H](O)COP(=O)(O)O; remark: listed apart in the source
Text: initial-rate kinetics, Michaelis-Menten fit on TAL (transaldolase)

[8] = substrate: Nc1ncnc2c1ncn2[C@@H]1O[C@H](COP(=O)(O)OP(=O)(O)OP(=O)(O)O)[C@@H](O)[C@H]1O
Text: initial-rate kinetics, Michaelis-Menten fit on GLK (glucokinase)

B1: TPI (triosephosphate isomerase) (Corynebacterium glutamicum ATCC 13032) (protein)
chain: MARKPLIAGNWKMNLDHQQAIGTVQKLAFALPKEYFEKVDVAVTVPFTDIRSVQTLVEGDKLEVTFGAQDVSQHESGAYTGEVSASMLAKLNCSWVVVGHSERREYHNESDELVAAKAKAALSNGISPIVCVGEPLEIREAGTHVEYVVEQTRKSLAGLDAAELANTVIAYEPVWAIGTGKVASAADAQEVCKAIRGLIVELAGDEVAEGLRILYGGSVKAETVAEIVGQPDVDGGLVGGASLDGEAFAKLAANAASVA
- Km [1]: 5430 ± 160 µM
- Vmax [1]: 160 µmol/min/mg
- kcat [1]: 75.7 ± 2.11 s⁻¹

B2: GAPDH (glyceraldehyde 3-phosphate dehydrogenase) (Corynebacterium glutamicum ATCC 13032) (protein)
chain: MTIRVGINGFGRIGRNFFRAVLERSDDLEVVAVNDLTDNKTLSTLLKFDSIMGRLGQEVEYDDDSITVGGKRIAVYAERDPKNLDWAAHNVDIVIESTGFFTDANAAKAHIEAGAKKVIISAPASNEDATFVYGVNHESYDPENHNVISGASCTTNCLAPMAKVLNDKFGIENGLMTTVHAYTGDQRLHDAPHRDLRRARAAAVNIVPTSTGAAKAVALVLPELKGKLDGYALRVPVITGSATDLTFNTKSEVTVESINAAIKEAAVGEFGETLAYSEEPLVSTDIVHDSHGSIFDAGLTKVSGNTVKVVSWYDNEWGYTCQLLRLTELVASKL
- Km [2]: 1470 ± 110 µM
- Vmax [2]: 15.7 µmol/min/mg
- kcat [2]: 9.71 ± 0.36 s⁻¹

B3: PGMA / PMGA / pgma (phosphoglycerate mutase) (Corynebacterium glutamicum ATCC 13032) (protein)
chain: MTNGKLILLRHGQSEWNASNQFTGWVDVNLTEQGEAEAKRGGELLVEAGVLPGVVYTSLLRRAIRTANIALNAADRHWIPVIRDWRLNERHYGALQGLDKAATKEKYGDDQFMEWRRSYDTPPPELADDAEYSQANDPRYADLDVVPRTECLKDVVVRFVPYFEEEILPRAKKGETVLIAAHGNSLRALVKHLDGISDADIAELNIPTGIPLVYEIAEDGSVVNPGGTYLDPEAAAAGAAAVANQGNK
- Km [3]: 4440 ± 320 µM
- Vmax [3]: 43.2 µmol/min/mg
- kcat [3]: 20.4 ± 1.05 s⁻¹

B4: ENO (enolase; ENO-Y) (Corynebacterium glutamicum ATCC 13032) (protein)
chain: MAEIMHVFAREILDSRGNPTVEAEVFLDDGSHGVAGVPSGASTGVHEAHELRDGGDRYLGKGVLKAVENVNEEIGDELAGLEADDQRLIDEAMIKLDGTANKSRLGANAILGVSMAVAKAAADSAGLPLFRYIGGPNAHVLPVPMMNIINGGAHADSGVDVQEFMIAPIGAETFSEALRNGAEVYHALKSVIKEKGLSTGLGDEGGFAPSVGSTREALDLIVEAIEKAGFTPGKDIALALDVASSEFFKDGTYHFEGGQHSAAEMANVYAELVDAYPIVSIEDPLQEDDWEGYTNLTATIGDKVQIVGDDFFVTNPERLKEGIAKKAANSILVKVNQIGTLTETFDAVDMAHRAGYTSMMSHRSGETEDTTIADLAVALNCGQIKTGAPARSDRVAKYNQLLRIEQLLGDAGVYAGRSAFPRFQG
- Km [4]: 60 ± 10 µM

B5: RPI (ribose-5-phosphate isomerase) (Corynebacterium glutamicum ATCC 13032) (protein)
chain: MRVYLGADHAGFETKNAIAEHLKAHGHEVIDCGAHTYDAEDDYPAFCIEAASRTVNDPGSLGIVLGGSGNGEQIAANKVKGARCALAWSVETARLAREHNNANLIGIGGRMHSEEEALAIVDAFLEQEWSNAERHQRRIDILADYERTGIAPVVPNE
- Km [5]: 420 ± 60 µM
- Vmax [5]: 11.2 µmol/min/mg
- kcat [5]: 3.39 ± 0.22 s⁻¹

B6: RPE (ribulose-5-phosphate 3-epimerase) (Corynebacterium glutamicum ATCC 13032) (protein)
chain: MAQRTPLIAPSILAADFSRLGEQVLAVPDADWIHVDIMDGHFVPNLSFGADITAAVNRVTDKELDVHLMIENPEKWVDNYIDAGADCIVFHVEATEGHVELAKYIRSKGVRAGFSLRPGTPIEDYLDDLEHFDEVIVMSVEPGFGGQSFMPEQLEKVRTLRKVIDERGLNTVIEIDGGISAKTIKQAADAGVDAFVAGSAVYGAEDPNKAIQELRALAQ
- Km [6]: 2810 ± 1250 µM
- Vmax [6]: 430 µmol/min/mg
- kcat [6]: 179 ± 22.2 s⁻¹

B7: TAL (transaldolase) (Corynebacterium glutamicum ATCC 13032) (protein)
chain: MSHIDDLAQLGTSTWLDDLSRERITSGNLSQVIEEKSVVGVTTNPAIFAAAMSKGDSYDAQIAELKAAGASVDQAVYAMSIDDVRNACDLFTGIFESSNGYDGRVSIEVDPRISADRDATLAQAKELWAKVDRPNVMIKIPATPGSLPAITDALAEGISVNVTLIFSVARYREVIAAFIEGIKQAAANGHDVSKIHSVASFFVSRVDVEIDKRLEAIGSDEALALRGKAGVANAQRAYAVYKELFDAAELPEGANTQRPLWASTGVKNPAYAATLYVSELAGPNTVNTMPEGTIDAVLEQGNLHGDTLSNSAAEADAVFSQLEALGVDLADVFQVLETEGVDKFVASWSELLESMEARLK
- Km [7]: 290 ± 80 µM
- Vmax [7]: 6.44 µmol/min/mg
- kcat [7]: 4.24 ± 0.47 s⁻¹

B8: GLK (glucokinase) (Corynebacterium glutamicum ATCC 13032) (protein)
chain: MPQKPASFAVGFDIGGTNMRAGLVDESGRIVTSLSAPSPRTTQAMEQGIFDLVEQLKAEYPVGAVGLAVAGFLDPECEVVRFAPHLPWRDEPVREKLENLLGLPVRLEHDANSAAWGEHRFGAAQGADNWVLLALGTGIGAALIEKGEIYRGAYGTAPEFGHLRVVRGGRACACGKEGCLERYCSGTALVYTARELASHGSFRNSGLFDKIKADPNSINGKTITAAARQEDPLALAVLEDFSEWLGETLAIIADVLDPGMIIIGGGLSNAADLYLDRSVNHYSTRIVGAGYRPLARVATAQLGADAGMIGVADLARRSVVEAN
- Km [8]: 810 ± 80 µM
- Vmax [8]: 37.7 µmol/min/mg
- kcat [8]: 22.2 ± 1.07 s⁻¹
